Among the data in US20100166704 are Kd values, retold here.

As usually defined, the Kd is the constant that tells how readily two partners part at equilibrium. Low readings indicate tighter binding, high ones weaker binding.

The subject of one series is GST-TIA-1 RRM2. As to the kind of experiment: EMSA. As to conditions: SD ±15 nM, four experiments; relative Kd; n about 1.1. For orientation: A gel shift assay detects complexes by their altered migration in electrophoresis.
The subject of a further series is GST-TIAR RRM2. As to the kind of experiment: EMSA. As to conditions: SD ±5 nM, four experiments; relative Kd; n about 1.2.

Turning to “WNV 3'(-) SL RNA (75 nt 3' terminal minus-strand)”, the Kd with GST-TIA-1 RRM2 stood at 112 nM; in the series on GST-TIAR RRM2, 15 nM.
